The target in this assay is anti-PfTRAP monoclonal antibody AKBR-7 (mouse). The experiment in a line: BLI. On the technique in general: In BLI a coated tip is dipped into the sample, and binding shifts an interference pattern.

B1: Plasmodium falciparum TRAP ectodomain (PfTRAP) (domain or fragment)
chain: RDVQNNIVDEIKYSEEVCNDQVDLYLLMDCSGSIRRHNWVNHAVPLAMKLIQQLNLNDNAIHLYVNVFSNNAKEIIRLHSDASKNKEKALIIIRSLLSTNLPYGRTNLTDALLQVRKHLNDRINRENANQLVVILTDGIPDSIQDSLKESRKLSDRGVKIAVFGIGQGINVAFNRFLVGCHPSDGKCNLYADSAWENVKNVIGPFMKAVCVEVEKTASCGVWDEWSPCSVTCGKGTRSRKREILHEGCTSEIQEQCEEERCPPKWEPLDVPDEPEDDQPRPRGDNSSVQKPEENIIDNNPQEPSPNPEEGKDENPNGFDLDENPENPPNPDIPEQKPNIPEDSEKEVPSDVPKNPEDDREENFDIPKKPENKHDNQNNLPNDKSDRNIPYSPLPPKVLDNERKQSDPQSQDNNGNRHVPNSEDRETRPHGRNNENRSYNRKYNDTPKHPEREEHEKPDNNKKKGESDNKYK
In general, Kd refers to the equilibrium constant for the complex coming apart. A high value points to weaker binding. Consider B1, for which the Kd was found to be 0.15 nM.

(Values after paper doi:10.1101/2021.10.15.464611.)
